According to patent publication US20230416343A1:
Where two headings read alike, the source gives them in different places.

How the values were obtained:
[1] = molecular target: SARS-CoV-2 Delta Plus variant S protein expressed on HEK293 cells (SARS-CoV-2) (UniProt P0DTC2)
[2] = molecular target: SARS-CoV-2 Delta variant S protein expressed on HEK293 cells (SARS-CoV-2) (UniProt P0DTC2)
[3] = molecular target: SARS-CoV-2 variant spike protein del 69-79 plus N439K on HEK293 cells (SARS-CoV-2) (UniProt P0DTC2)
[4] = molecular target: SARS-CoV-2 variant spike protein del 69-79 plus N501Y and D614G on HEK293 cells (SARS-CoV-2) (UniProt P0DTC2)
[5] = molecular target: SARS-CoV-2 Delta variant S protein expressed on HEK293 cells (SARS-CoV-2) (UniProt P0DTC2); remark: listed apart in the source
[6] = molecular target: SARS-CoV-2 variant spike protein del 69-79 plus N439K on HEK293 cells (SARS-CoV-2) (UniProt P0DTC2); remark: listed apart in the source
[7] = molecular target: SARS-CoV-2 variant spike protein del 69-79 plus N501Y on HEK293 cells (SARS-CoV-2) (UniProt P0DTC2)

Substance: S1D7270LALA antibody (STI-2020)
- EC50 [1]: 0.187 mg/L
- EC50 [2]: 0.105 mg/L
- EC50 [3]: 70 mg/L
- EC50 [4]: 172 mg/L
- EC50 [5]: 0.106 mg/L
- EC50 (read off the curve) [6]: 0.07 mg/L
- EC50 (read off the curve) [7]: 0.09 mg/L
